The text below walks through data of US20050065080A1, “Use of leptin in fertility” (priority 2001, published 2005).

Assay [1] deals with ob/ob mice. The assay is described as follows: Follicular development in antide-treated ob/ob mice (hematoxylin-eosin ovarian sections). It is filed as in vivo, mouse. The following applies: for follicular growth in ovarian sections: single agent. The method, then: The effect of leptin in follicular development was studied in ob/ob mice that were treated with the GnRH antagonist antide (Phillips et al. 1988). It is therefore expected that following administration of leptin to antide treated mice, as opposed to non-treated mice, release of LH or FSH from the pituitary gland will not occur.
8-10 week-old obese C57B1-ob/ob female mice were all injected (time 0) with antide (1.25 μg/g body weight). Mice were divided into several groups. A control group was injected with saline only. A second group was injected with murine leptin (ip,2×5 μg/g body weight purchased from R&D systems) at times 0 and 9 h. A third group was injected with pregnant mare serum gonadotropins (PMSG, 3 IU/mice, sc). A fourth group received a combination of both PMSG and leptin. Mice were sacrificed at 9, 24, and 48 and 72 h following the first treatment, the ovaries were excised, paraffin-fixed and stained with hematoxylin-eosin to visualize follicular and ovarian growth.

Another assay concerns C57BL/6 mice. The assay is described as follows: Ovulation induction in antide-treated prepubertal C57BL/6 mice (oocyte count). The following applies: for Oocyte count in C57BL/6 mice: antide-treated, PMSG at 0 h, leptin or hCG at 48 h, oocytes counted at 72 h, range. In kind it is in vivo, mouse. The method, then:
(§1) In the present example, ovulation was studied in ob/ob mice and in prepubertal C57BL/6 mice. All mice were treated with antide to prevent induction of LH by leptin. […] Following the various treatments, mice were sacrificed and oocytes were collected from the ampoule at 72 hours from the first injection and counted.
(§2) Similarly a group of ob/ob mice were injected with PMSG (3 IU/animal) and after 48 h with leptin (2×5 μg/g weight). […] Ovulation was monitored by counting oocytes in the oviducts under the microscope.

A further assay relates to LH. In words: Serum LH radioimmunoassay in antide-treated mice. In kind it is in vivo, mouse. As for the experimental part: Leptin induces the GnRH release from the Hypothalamus, which in turn releases FSH and LH from the Pituitary glands (Yu et al. 1997). To test if the follicle development and ovulation induced in the antide-treated C57BL mice and ob/ob mice by leptin is mediated by LH release, serum LH as well as progesterone, which is an LH-induced marker was measured. Measurement of plasma murine LH (mLH) and progesterone were carried out with specific radioimmunoassays. Progesterone was determined in mouse sera by RIA (Kohen 1975). LH was determined in mouse by a specific RIA, obtained trough the National Hormone & Pituitary Program, harbor-UCLA Medical Center (Torrance, California). The levels of mLH were below 0.2 ng/ml in all cases (Table 2). The levels of LH remained low throughout the follicular growth and ovulation in leptin-treated mice. However, it is difficult to detect the LH surge even in positive controls. Therefore, measurement of the LH-induced serum progesterone serve as a more reliable marker of circulating LH.

In assay [2] the test system is ob/ob mice. The assay is described as follows: Ovulation induction in antide-treated ob/ob mice (oocyte count). In kind it is in vivo, mouse. The settings on record: for Oocyte count in ob/ob mice: antide-treated, PMSG at 0 h, leptin or hCG at 48 h, oocytes counted at 72 h, range. As for the experimental part:
as §1, §2

A further assay has as its system uterus. In words: Appearance of the uterus in treated mice. The settings on record: for uterus distension and hyperemia: after PMSG, or PMSG followed by hCG or leptin, leptin: ob/ob mice that ovulated. In kind it is in vivo, mouse.
A further assay deals with progesterone. In words: Serum progesterone radioimmunoassay in ob/ob and C57BL/6 mice. In kind it is in vivo, mouse. The following applies: PMSG at time 0, agent at 48 h, RIA at 72 h; FIG. 1.
The test system of another assay is ADAMTS-1. In words: ADAMTS-1 expression in cultured pre-ovulatory follicles (quantitative RT-PCR). In kind it is cell-based, mouse. The settings on record: 17 h; leptin 250 ng/ml or hCG 1 IU; normalized to ribosomal protein L19; FIG. 2.
Another assay deals with Cathepsin L. The assay is described as follows: Cathepsin L expression in cultured pre-ovulatory follicles (quantitative RT-PCR). In kind it is cell-based, mouse. The following applies: 17 h; not statistically significant. The source says:
Total RNA was isolated from the follicles and subjected to quantitative RT-PCR with specific primers for two proteases, ADAMTS-1 and Cathepsin L. The PCR products were resolved in agarose gel electrophoresis and scanned. The RNAs levels of ADAMTS-1 were normalized to the RNAs levels of ribosomal protein
To test whether leptin can induce the expression of ADAMTS-1 and cathepsin L by acting directly on the ovary, in vitro experiments were preformed on pre-ovulatory follicles obtained from 21 days old C57BL/6 mice treated with PMSG (3 IU/animal) for 48 h. […] Total RNA was isolated from the follicles and subjected to quantitative RT-PCR using the LightCycler™ (Roche diagnostics). The primers used for the detection of murine ADAMTS-1 transcripts were: […]
The RNAs levels of ADAMTS-1 and cathepsin L detected in agarose gel electrophoresis of the PCR products were normalized to the RNAs levels of murine ribosomal protein L19

Setting [3] is: antide + PMSG (48 h) then leptin or hCG (24 h).

Protocol for ADAMTS-1: Pre-ovulatory follicles were removed, cultured and further treated for 17 h in the absence or presence of either leptin (250 ng/ml) or hCG (1 IU). Total RNA was isolated from the follicles and subjected to quantitative RT-PCR using the LightCycler™ (Roche diagnostics). The primers used for the detection of murine ADAMTS-1 transcripts were:
Protocol for progesterone: Mice were treated with PMSG at time 0 and the indicated agent at 48 h. Progesterone was determined by RIA at 72 h in sera of C57BL/6 mice (grey bars) and of ob/ob mice (open bars).

Regarding antide [reference compound], the “follicular growth in ovarian sections” value with ob/ob mice [1] (antide-treated ob/ob mice) is given as “only early stages of follicular growth”. In the assay on C57BL/6 mice, the “Oocyte count in C57BL/6 mice” value was determined as 0. The “Serum LH” value with LH (antide-treated mice, 72 h) was 0.04 ± 0.01 ng/mL.

As to “pregnant mare serum gonadotropins [PMSG, reference compound]”, the “follicular growth in ovarian sections” value with ob/ob mice [1] (antide-treated ob/ob mice) is reported as “large antral follicles were formed at 72 h”. The “Oocyte count in ob/ob mice” value with ob/ob mice [2] is on record as 0 oocytes per mouse. Further, in the assay with C57BL/6 mice, the “Oocyte count in C57BL/6 mice” value was 0. The “Serum LH” value in the assay on LH (antide + PMSG, 60 h) was 0.2 ng/mL; in the assay on LH (antide-treated mice, 72 h), 0.09 ± 0.01 ng/mL. Besides, the “uterus distension and hyperemia” value in the assay on uterus is “maximal distension”.

B1: leptin (protein, UniProt P41160 22-167, looked up)
Leptin: VPIQKVQDDTKTLIKTIVTRINDISHTQSVSAKQRVTGLDFIPGLHPILSLSKMDQTLAVYQQVLTSLPSQNVLQIANDLENLRDLLHLLAFSKSCSLPQTSGLQKPESLDGVLEASLYSTEVVALSRLQGSLQDILQQLDVSPEC
notes: murine leptin purchased from R&D systems; adipocyte-secreted protein encoded by the obese (ob) gene
With B1, the ovarian growth entry with ob/ob mice [1] (antide-treated ob/ob mice, concomitant PMSG and leptin, after 72 h) was “an interstitial cell growth and further ovarian growth were observed”. Besides, in the assay on ob/ob mice [1] (antide-treated ob/ob mice, as early as), the “time at which large follicles could be observed after initiation of treatment” value was 9 h. Also, the “follicular growth in ovarian sections” value in the assay on ob/ob mice [1] (antide-treated ob/ob mice) is listed as “induced rapid follicular growth”. Moreover, the “corpora lutea in the ovaries” value in the assay with ob/ob mice [1] (ob/ob mice, PMSG at time 0 and leptin instead of hCG at 48 h, seen at 72 h) is reported as “corpora lutea were also seen”. For the same molecule, the “ovulation (oocytes in the oviducts)” value in the assay with ob/ob mice [2] (PMSG then agent at 48 h, summary of Table 1) is on record as “ovulation was observed”. Further, the “mice ovulated, ob/ob mice” value in the assay with ob/ob mice [2] (setting [3]) is given as 3 out of 5 mice ovulated. In addition, in the assay with ob/ob mice [2], the “Oocyte count in ob/ob mice” value was “(range 1-6 oocytes per oocytes per mouse”. Moreover, the “mice ovulated, C57BL/6 mice” value with C57BL/6 mice (setting [3]) was 7 out of 7 mice. Besides, the “Oocyte count in C57BL/6 mice” value in the assay with C57BL/6 mice is “(2-7)”. In addition, the “Serum LH” value in the assay on LH (antide + PMSG 48 h then leptin 12 h) was found to be 0.17 ± 0 ng/mL; with LH (antide + PMSG 48 h then leptin 24 h) it was 0.057 ± 0.01 ng/mL; with LH (antide + leptin, 9 h), 0.05 ng/mL; in the assay on LH (antide + leptin, 24 h), 0.06 ± 0.01 ng/mL; in the assay with LH (antide + leptin, 48 h), 0.07 ± 0.04 ng/mL; in the assay on LH (antide-treated mice, 72 h) it was 0.04 ± 0.01 ng/mL. Further, the serum progesterone result in the assay on progesterone was “lack of significant progesterone synthesis”. In addition, in the assay on uterus, the “uterus distension and hyperemia” value is reported as “remained hyperemic, exhibiting maximal distension”. For the same molecule, the uterine features entry in the assay on uterus (antide-treated C57BL/6 mice) was “same uterine features, were also observed”. In addition, the uterus hyperemia entry in the assay with uterus (leptin in the absence of PMSG) is “rendered the uterus hyperemic”. For the same molecule, in the assay on ADAMTS-1, the “induction of ADAMTS-1 RNA” value is “significant induction”. In addition, the “induction of Cathepsin L RNA” value in the assay with Cathepsin L is “Marginal induction”.
